Source: paper PMC8519433

What was measured:
[1] = molecular target: human CXCR1 on transfected L1.2 cells (human) (UniProt P25024)
[2] = molecular target: CXCL8 (6-77), produced in-house (human); test: SEC-MALS; CXCL8 at 4.2 mg/ml (0.5 mM), Superdex 75 10/300 GL, 20 mM Na phosphate pH 6.5, 100 mM NaCl, room temperature; a single species

Sequence of human CXCR1 on transfected L1.2 cells (human) (P25024 whole entry): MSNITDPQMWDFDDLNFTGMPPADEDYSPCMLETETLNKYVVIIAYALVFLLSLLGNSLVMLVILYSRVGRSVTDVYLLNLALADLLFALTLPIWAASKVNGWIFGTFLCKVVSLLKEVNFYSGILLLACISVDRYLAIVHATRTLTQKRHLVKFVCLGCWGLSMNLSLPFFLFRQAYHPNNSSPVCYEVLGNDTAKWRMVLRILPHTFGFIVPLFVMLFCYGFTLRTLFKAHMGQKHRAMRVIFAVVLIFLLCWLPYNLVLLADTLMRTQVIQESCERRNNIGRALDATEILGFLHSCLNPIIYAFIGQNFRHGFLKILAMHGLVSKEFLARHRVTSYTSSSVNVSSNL

| chemotaxis of CXCR1-transfected L1.2 cells (modified Boyden chamber, 5 h), serial dilutions of CXCL8, bell-shaped response; percentage of cells migrated at the optimal concentration [1] | stoichiometry N [2] | Substance |
| --- | --- | --- |
| 20% | – | Recombinant CXCL8 (6-77), commercially available (ligand) |
| 20% | 2 | CXCL8 (6-77), produced in-house (ligand) |
